Results from US20250109190A1 (BYOMASS, published 2025).
Substitutions are numbered along the chain they refer to.

B1: Antibody A (Clone A), IgG (antibody, V domains shown)
VH: QVQLVQSGAEVKKPGASVKVSCKASGYTFTGYYMHWVRQAPGQGLEWMGSINPSSGGTNYAQKFQGRVTMTTDTSTSTAYMELRSLRSDDTAVYYCARARDIAAAGLGAFDYWGQGTLVTVSS
VL: EIVLTQSPGTLSLSPGERATLSCRASQSVRSSYLAWYQQKPGQAPRLLIYGASSRATGIPDRFSGSGSGTDFTLTISRLEPEDFAVYYCQQYVSYPRTFGGGTKVEIKR
notes: IgG
B2: Antibody F (Clone F), IgG (antibody, V domains shown)
VH: B1 VH with Y33H, M34I, A40V, S50V, N52S, P53A, S54Y, G57D, F64L, A105L
VL: EIVLTQSPATLSVSPGERATLSCRASQSVSSNLAWYQQKPGQAPRLLIYGASDRATGIPARFSGSGSGTEFTLTISSLQSEDFAVYYCIQYSNYPRTFGGGTKVEIKR
notes: IgG
B3: Antibody E (Clone E), IgG (antibody, V domains shown)
VH: B1 VH with T30H, Y33N, S54Y, G57Y, N59I, T72R, T76I, R84S, S85R
VL: B1 VL
notes: IgG
B4: Antibody D (Clone D), IgG (antibody, V domains shown)
VH: B1 VH with T30F, Y33S, S50V, G57D, T72R, T76I, R84S, S85R, A105L
VL: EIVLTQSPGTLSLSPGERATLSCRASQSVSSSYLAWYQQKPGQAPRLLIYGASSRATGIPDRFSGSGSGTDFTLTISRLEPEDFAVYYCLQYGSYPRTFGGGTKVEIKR
notes: IgG
B5: Antibody C (Clone C), IgG (antibody, V domains shown)
VH: B1 VH with T30P, Y33H, S50V, G57D, T72R, T76I, R84S, S85R, A105L
VL: B1 VL with R30S, T57G, S94A
notes: IgG
B6: Antibody B (Clone B), IgG (antibody, V domains shown)
VH: B1 VH with T30I, Y33D, S50V, T72R, T76I, R84S, S85R, A105L
VL: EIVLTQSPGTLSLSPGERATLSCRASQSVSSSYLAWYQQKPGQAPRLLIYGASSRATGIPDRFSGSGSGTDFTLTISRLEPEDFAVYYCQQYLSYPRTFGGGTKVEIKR
notes: IgG
B7: Antibody H (Clone H), IgG (antibody, V domains shown)
VH: B1 VH with Y33H, M34I, S50H, N52S, P53A, S54Y, G57T, F64L
VL: B1 VL with V93S, S94N
notes: IgG
B8: Antibody P (Clone P), IgG (antibody, V domains shown)
VH: QVQLVQSGAEVKKPGSSVKVSCKASGGTFDDYAISWVRQAPGQGLEWMGGIIPRFGIANYAQKFQGRVTITADESTSTAYMELSSLRSEDTAVYYCARPPSSGSDWGQGTLVTVSS
VL: DIQMTQSPSSVSASVGDRVTITCRASQGIDSWLAWYQQKPGKAPKLLIYAASSLQSGVPSRFSGSGSGTDFTLTISSLQPEDFATYYCQQVHSFPITFGGGTKVEIKR
notes: IgG
B9: Antibody L (Clone L), IgG (antibody, V domains shown)
VH: QVQLQESGPGLVKPSETLSLTCAVSGYSISSGYYWGWIRQPPGKGLEWIGSIYHSGSTYYNPSLKSRVTISVDTSKNQFSLKLSSVTAADTAVYYCAREAGSGYWYLSVYGMDVWGQGTTVTVSS
VL: B2 VL with D53T, I89Q, Y91S, S92D, N93D, Y94W, R96W
notes: IgG
B10: Antibody M (Clone M), IgG (antibody, V domains shown)
VH: QLQLQESGPGLVKPSETLSLTCTVSGGSISSSDYYWGWIRQPPGKGLEWIGSIYYPANTYYNPSLKSRVTISVDTSKNQFSLKLSSVTAADTAVYYCARGYWNYGMDVWGQGTTVTVSS
VL: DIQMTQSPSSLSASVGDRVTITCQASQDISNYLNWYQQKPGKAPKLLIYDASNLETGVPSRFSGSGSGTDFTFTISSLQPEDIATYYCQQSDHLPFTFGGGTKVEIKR
notes: IgG
B11: Antibody N (Clone N), IgG (antibody, V domains shown)
VH: B10 VH with N58S
VL: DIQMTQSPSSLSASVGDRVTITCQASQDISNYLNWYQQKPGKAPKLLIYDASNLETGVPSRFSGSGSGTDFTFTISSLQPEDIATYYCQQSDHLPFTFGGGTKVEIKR
notes: IgG

The binders below were run against T1, BMP9 (UniProt Q9UK05 320-429) (assay: BLI Octet; IgG, avid).
T1 sequence (looked up): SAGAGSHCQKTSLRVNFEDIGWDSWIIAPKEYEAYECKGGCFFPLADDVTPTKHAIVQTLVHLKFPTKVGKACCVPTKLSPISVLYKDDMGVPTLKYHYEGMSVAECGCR

Binding result, no binding (tested: 100 nM):
B1
B2
B3
B4
B5
B6
B7
B8
B9
B10
B11

What follows are binders tested against T2, GDF15 Fc (UniProt Q99988 197-308, limits assumed) (assay: BLI Octet; IgG, avid).
T2 construct: species not given; not shown: Fc part of the fusion
T2 sequence (looked up): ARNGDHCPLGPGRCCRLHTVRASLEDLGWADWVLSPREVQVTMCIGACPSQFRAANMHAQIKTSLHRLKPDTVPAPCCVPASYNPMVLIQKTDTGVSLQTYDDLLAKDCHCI

Binding result, no binding (tested: 100 nM):
B1
B2
B3
B4
B5
B6
B7
B8
B9
B10
B11

What follows are binders tested against T3, human GDNF (human, UniProt P39905 78-211, limits assumed) (assay: BLI Octet; IgG, avid).
T3 sequence (looked up): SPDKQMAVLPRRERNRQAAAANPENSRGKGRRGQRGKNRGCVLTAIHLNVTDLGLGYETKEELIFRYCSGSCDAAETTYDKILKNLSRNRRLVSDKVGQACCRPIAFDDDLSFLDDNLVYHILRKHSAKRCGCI

Binding result, no binding (tested: 100 nM):
B1
B2
B3
B4
B5
B6
B7
B8
B9
B10
B11

These binders were tested against T4, human GDF10 (human, UniProt P55107 369-478) (assay: BLI Octet; IgG, avid).
T4 sequence (looked up): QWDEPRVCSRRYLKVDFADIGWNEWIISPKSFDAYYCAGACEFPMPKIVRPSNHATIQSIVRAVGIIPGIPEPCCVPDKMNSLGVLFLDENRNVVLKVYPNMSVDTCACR

Binding result, no binding (tested: 100 nM):
B1
B2
B3
B4
B5
B6
B7
B8
B9
B10
B11

Each binder was assayed against human GDF11 (human, UniProt O95390 299-407) (assay: BLI Octet; IgG, avid).
Chain of human GDF11 (O95390 299-407 limits assumed): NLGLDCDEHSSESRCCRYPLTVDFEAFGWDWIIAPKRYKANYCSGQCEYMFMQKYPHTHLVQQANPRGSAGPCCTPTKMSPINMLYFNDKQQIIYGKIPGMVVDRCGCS

Binding result, no binding (tested: 100 nM):
B1
B7
B8
B9
B10
B11

The binders below were run against human GDF8 (human, UniProt O14793 267-375) (assay: BLI Octet; IgG, avid).

Binding result, no binding (tested: 100 nM):
B1
B2
B3
B4
B5
B6
B7
B8
B9
B10
B11

What follows are binders tested against T5, Activin B (UniProt P09529 293-407) (assay: BLI Octet; IgG, avid).
T5 sequence (looked up): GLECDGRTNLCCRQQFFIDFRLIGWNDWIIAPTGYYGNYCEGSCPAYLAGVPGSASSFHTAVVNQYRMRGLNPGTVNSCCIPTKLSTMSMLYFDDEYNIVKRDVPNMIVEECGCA

Binding result, no binding (tested: 100 nM):
B1

The binders below were run against T6, BMP10 (UniProt O95393 317-424) (assay: BLI Octet; IgG, avid).
T6 sequence (looked up): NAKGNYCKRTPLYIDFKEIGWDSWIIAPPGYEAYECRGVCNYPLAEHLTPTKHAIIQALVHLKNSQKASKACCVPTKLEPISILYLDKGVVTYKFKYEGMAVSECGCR

Binding result, no binding (tested: 100 nM):
B1
B2
B3
B4
B5
B6
B7
B8
B9
B10
B11
